Results reported in patent US20180155451A1 (published 2018).

T1: FcγRIIa R (human FcγRIIa, allotype R, Arg at position 131), extracellular domain with C-terminal His tag (human, UniProt P12318 34-217)
T1 construct: extracellular domain; expressed in FreeStyle293 cells; analyte in Biacore; also called 2aR; FcgRIIa R
T1 sequence (looked up): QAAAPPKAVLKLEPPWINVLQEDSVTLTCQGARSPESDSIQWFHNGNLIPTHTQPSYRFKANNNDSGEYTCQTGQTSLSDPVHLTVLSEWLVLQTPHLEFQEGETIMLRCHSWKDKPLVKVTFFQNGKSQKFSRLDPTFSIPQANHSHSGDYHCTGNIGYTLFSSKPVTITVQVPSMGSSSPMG

B1: GpH7-A5/GpH7-B3 variant A330_05P/GpL16-k0 (antibody, human IgG1, kappa)
heavy 1: not shown
heavy 2: not shown
light: DIVMTQSPLSLPVTPGEPASISCQASESLVHSNRNTYLHWYLQKPGQSPQLLIYKVSNRFSGVPDRFSGSGSGTDFTLKISRVEAEDVGVYYCSQNTHVPPTFGQGTKVEIERTVAAPSVFIFPPSDEQLKSGTASVVCLLNNFYPREAKVQWKVDNALQSGNSQESVTEQDSKDSTYSLSSTLTLSKADYEKHKVYACEVTHQGLSSPVTKSFNRGEC
notes: also called He Ab A330_05P
B2: GpH7-A5/GpH7-B3 variant A330_07I/GpL16-k0 (antibody, human IgG1, kappa)
heavy 1: not shown
heavy 2: not shown
light: B1 light
notes: also called He Ab A330_07I
B3: GpH7-A5/GpH7-B3 variant E333_02A/GpL16-k0 (antibody, human IgG1, kappa)
heavy 1: not shown
heavy 2: not shown
light: B1 light
notes: also called He Ab E333_02A
B4: GpH7-B3 variant S337_04F/GpL16-k0 (antibody, human IgG1, kappa)
heavy: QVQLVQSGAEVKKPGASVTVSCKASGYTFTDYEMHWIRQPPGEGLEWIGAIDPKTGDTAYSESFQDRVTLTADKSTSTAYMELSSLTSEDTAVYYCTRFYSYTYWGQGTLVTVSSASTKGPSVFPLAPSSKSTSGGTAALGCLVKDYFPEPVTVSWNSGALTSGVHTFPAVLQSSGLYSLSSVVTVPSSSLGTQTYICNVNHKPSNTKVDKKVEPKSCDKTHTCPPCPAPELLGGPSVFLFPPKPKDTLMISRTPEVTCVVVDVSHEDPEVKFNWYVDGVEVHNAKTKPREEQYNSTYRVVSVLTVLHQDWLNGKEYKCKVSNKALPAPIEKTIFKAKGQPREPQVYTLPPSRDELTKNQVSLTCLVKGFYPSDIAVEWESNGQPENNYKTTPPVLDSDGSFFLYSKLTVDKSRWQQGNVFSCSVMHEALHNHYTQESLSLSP
light: B1 light
notes: homodimerized antibody, mutation in both H chains; also called Ho Ab
B5: GpH7-B3 variant S324_06M/GpL16-k0 (antibody, human IgG1, kappa)
heavy: not shown
light: B1 light
notes: as for B4
B6: GpH7-B3 variant S337_03V/GpL16-k0 (antibody, human IgG1, kappa)
heavy: not shown
light: B1 light
notes: as for B4
B7: GpH7-B3 variant S239_07I/GpL16-k0 (antibody, human IgG1, kappa)
heavy: not shown
light: B1 light
notes: as for B4
B8: GpH7-B3 variant T335_10E/GpL16-k0 (antibody, human IgG1, kappa)
heavy: not shown
light: B1 light
notes: as for B4
B9: GpH7-B3 variant T335_02A/GpL16-k0 (antibody, human IgG1, kappa)
heavy: not shown
light: B1 light
notes: as for B4
B10: GpH7-B3 variant T335_07I/GpL16-k0 (antibody, human IgG1, kappa)
heavy: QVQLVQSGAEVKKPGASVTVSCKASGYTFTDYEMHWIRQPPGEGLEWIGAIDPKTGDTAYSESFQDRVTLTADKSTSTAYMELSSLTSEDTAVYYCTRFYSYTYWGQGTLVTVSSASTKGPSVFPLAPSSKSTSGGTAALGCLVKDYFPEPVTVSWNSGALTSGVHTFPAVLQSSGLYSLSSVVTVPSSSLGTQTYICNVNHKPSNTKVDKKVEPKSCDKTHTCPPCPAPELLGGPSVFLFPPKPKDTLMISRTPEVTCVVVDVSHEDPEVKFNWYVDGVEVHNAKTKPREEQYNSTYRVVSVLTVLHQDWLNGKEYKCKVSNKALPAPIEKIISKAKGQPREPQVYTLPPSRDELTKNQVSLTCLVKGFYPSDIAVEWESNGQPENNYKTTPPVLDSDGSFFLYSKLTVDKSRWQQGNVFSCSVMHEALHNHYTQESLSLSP
light: B1 light
notes: as for B4
B11: GpH7-B3 variant S267_19Q/GpL16-k0 (antibody, human IgG1, kappa)
heavy: not shown
light: B1 light
notes: as for B4
B12: GpH7-B3 variant Y296_19Q/GpL16-k0 (antibody, human IgG1, kappa)
heavy: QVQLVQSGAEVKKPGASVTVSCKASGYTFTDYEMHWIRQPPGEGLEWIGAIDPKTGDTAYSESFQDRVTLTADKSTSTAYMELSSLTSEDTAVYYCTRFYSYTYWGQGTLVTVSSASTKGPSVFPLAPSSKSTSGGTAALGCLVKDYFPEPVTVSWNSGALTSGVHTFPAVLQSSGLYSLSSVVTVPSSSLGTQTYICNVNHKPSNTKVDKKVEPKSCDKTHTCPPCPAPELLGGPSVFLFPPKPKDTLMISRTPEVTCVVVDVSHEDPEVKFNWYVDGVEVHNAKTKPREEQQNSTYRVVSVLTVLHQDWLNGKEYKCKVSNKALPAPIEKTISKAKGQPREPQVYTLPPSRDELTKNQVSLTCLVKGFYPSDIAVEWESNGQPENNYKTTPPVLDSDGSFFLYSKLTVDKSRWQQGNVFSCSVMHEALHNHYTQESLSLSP
light: B1 light
notes: as for B4
B13: GpH7-B3 variant T335_19Q/GpL16-k0 (antibody, human IgG1, kappa)
heavy: not shown
light: B1 light
notes: as for B4
B14: GpH7-B3 variant S337_12R/GpL16-k0 (antibody, human IgG1, kappa)
heavy: not shown
light: B1 light
notes: as for B4
B15: GpH7-B3 variant Y296_09D/GpL16-k0 (antibody, human IgG1, kappa)
heavy: not shown
light: B1 light
notes: as for B4
B16: GpH7-B3 variant S337_20W/GpL16-k0 (antibody, human IgG1, kappa)
heavy: not shown
light: B1 light
notes: as for B4
B17: GpH7-B3 variant Y296_13S/GpL16-k0 (antibody, human IgG1, kappa)
heavy: not shown
light: B1 light
notes: as for B4
B18: GpH7-B3 variant T335_18N/GpL16-k0 (antibody, human IgG1, kappa)
heavy: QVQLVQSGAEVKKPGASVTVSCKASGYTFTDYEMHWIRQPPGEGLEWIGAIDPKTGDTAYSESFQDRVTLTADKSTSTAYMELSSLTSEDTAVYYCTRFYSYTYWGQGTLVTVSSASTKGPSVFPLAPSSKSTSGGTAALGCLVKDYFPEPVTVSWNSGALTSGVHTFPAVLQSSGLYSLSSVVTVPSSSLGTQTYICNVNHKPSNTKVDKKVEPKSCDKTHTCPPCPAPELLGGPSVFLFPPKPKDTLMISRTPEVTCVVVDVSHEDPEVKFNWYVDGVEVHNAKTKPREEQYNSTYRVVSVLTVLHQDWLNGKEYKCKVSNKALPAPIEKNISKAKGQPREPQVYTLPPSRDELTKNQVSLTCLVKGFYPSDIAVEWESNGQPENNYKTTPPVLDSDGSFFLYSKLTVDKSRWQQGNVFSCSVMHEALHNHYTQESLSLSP
light: B1 light
notes: as for B4
B19: GpH7-B3 variant Y296_20W/GpL16-k0 (antibody, human IgG1, kappa)
heavy: not shown
light: B1 light
notes: as for B4
B20: GpH7-B3 variant S337_16H/GpL16-k0 (antibody, human IgG1, kappa)
heavy: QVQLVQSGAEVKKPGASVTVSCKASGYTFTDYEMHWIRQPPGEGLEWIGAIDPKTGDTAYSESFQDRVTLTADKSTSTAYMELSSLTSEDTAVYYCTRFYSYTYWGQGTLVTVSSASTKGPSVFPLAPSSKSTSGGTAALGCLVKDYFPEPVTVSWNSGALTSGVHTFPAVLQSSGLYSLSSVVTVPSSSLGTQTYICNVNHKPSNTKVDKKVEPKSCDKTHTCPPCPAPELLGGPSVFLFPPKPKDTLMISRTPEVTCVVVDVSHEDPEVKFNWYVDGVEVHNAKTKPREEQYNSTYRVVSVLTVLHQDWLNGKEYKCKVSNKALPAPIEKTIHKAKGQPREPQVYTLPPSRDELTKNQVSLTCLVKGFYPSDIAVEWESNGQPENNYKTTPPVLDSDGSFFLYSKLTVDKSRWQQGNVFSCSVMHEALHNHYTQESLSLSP
light: B1 light
notes: as for B4
B21: GpH7-B3 variant Y296_10E/GpL16-k0 (antibody, human IgG1, kappa)
heavy: not shown
light: B1 light
notes: as for B4
B22: GpH7-B3 variant S298_08L/GpL16-k0 (antibody, human IgG1, kappa)
heavy: not shown
light: B1 light
notes: as for B4
B23: GpH7-B3 variant S337_09D/GpL16-k0 (antibody, human IgG1, kappa)
heavy: not shown
light: B1 light
notes: as for B4
B24: GpH7-B3 variant Y296_14T/GpL16-k0 (antibody, human IgG1, kappa)
heavy: not shown
light: B1 light
notes: as for B4
B25: GpH7-B3 variant S337_18N/GpL16-k0 (antibody, human IgG1, kappa)
heavy: not shown
light: B1 light
notes: as for B4
B26: GpH7-B3 variant T335_01G/GpL16-k0 (antibody, human IgG1, kappa)
heavy: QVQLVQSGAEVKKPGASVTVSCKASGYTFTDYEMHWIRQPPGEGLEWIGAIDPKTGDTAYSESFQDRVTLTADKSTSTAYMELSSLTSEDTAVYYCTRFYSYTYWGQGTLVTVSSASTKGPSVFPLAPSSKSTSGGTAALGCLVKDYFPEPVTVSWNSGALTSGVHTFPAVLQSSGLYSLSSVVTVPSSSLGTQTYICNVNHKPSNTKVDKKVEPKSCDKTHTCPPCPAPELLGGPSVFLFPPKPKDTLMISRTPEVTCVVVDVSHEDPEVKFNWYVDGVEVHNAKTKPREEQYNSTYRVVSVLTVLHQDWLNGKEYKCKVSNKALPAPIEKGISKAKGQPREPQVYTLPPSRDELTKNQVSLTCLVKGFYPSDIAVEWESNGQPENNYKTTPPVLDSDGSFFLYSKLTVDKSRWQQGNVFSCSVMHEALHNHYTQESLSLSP
light: B1 light
notes: as for B4
B27: GpH7-B3 variant S337_10E/GpL16-k0 (antibody, human IgG1, kappa)
heavy: not shown
light: B1 light
notes: as for B4
B28: GpH7-B3 variant S337_19Q/GpL16-k0 (antibody, human IgG1, kappa)
heavy: not shown
light: B1 light
notes: as for B4
B29: GpH7-B3 variant S337_11K/GpL16-k0 (antibody, human IgG1, kappa)
heavy: not shown
light: B1 light
notes: as for B4
B30: GpH7-B3 variant S239_06M/GpL16-k0 (antibody, human IgG1, kappa)
heavy: not shown
light: B1 light
notes: as for B4
B31: GpH7-B3 variant S239_14T/GpL16-k0 (antibody, human IgG1, kappa)
heavy: not shown
light: B1 light
notes: as for B4
B32: GpH7-B3 variant Q295_06M/GpL16-k0 (antibody, human IgG1, kappa)
heavy: not shown
light: B1 light
notes: as for B4
B33: GpH7-B3 variant Y296_16H/GpL16-k0 (antibody, human IgG1, kappa)
heavy: not shown
light: B1 light
notes: as for B4
B34: GpH7-B3 variant Y296_04F/GpL16-k0 (antibody, human IgG1, kappa)
heavy: not shown
light: B1 light
notes: as for B4
B35: GpH7-B3 variant T335_16H/GpL16-k0 (antibody, human IgG1, kappa)
heavy: not shown
light: B1 light
notes: as for B4
B36: GpH7-B3 variant S267_09D/GpL16-k0 (antibody, human IgG1, kappa)
heavy: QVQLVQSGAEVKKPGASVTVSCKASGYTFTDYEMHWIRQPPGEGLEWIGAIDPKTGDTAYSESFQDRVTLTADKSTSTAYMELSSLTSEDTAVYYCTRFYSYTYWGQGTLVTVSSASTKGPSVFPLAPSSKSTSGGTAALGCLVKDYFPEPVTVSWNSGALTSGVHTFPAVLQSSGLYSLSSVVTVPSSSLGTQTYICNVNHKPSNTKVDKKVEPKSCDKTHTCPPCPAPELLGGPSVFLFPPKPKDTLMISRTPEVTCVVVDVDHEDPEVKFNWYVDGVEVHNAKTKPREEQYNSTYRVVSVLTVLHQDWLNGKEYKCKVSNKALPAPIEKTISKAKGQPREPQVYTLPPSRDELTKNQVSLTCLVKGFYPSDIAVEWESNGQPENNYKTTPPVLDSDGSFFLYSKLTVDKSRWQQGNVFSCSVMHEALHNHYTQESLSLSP
light: B1 light
notes: as for B4
B37: GpH7-B3 variant S267_06M/GpL16-k0 (antibody, human IgG1, kappa)
heavy: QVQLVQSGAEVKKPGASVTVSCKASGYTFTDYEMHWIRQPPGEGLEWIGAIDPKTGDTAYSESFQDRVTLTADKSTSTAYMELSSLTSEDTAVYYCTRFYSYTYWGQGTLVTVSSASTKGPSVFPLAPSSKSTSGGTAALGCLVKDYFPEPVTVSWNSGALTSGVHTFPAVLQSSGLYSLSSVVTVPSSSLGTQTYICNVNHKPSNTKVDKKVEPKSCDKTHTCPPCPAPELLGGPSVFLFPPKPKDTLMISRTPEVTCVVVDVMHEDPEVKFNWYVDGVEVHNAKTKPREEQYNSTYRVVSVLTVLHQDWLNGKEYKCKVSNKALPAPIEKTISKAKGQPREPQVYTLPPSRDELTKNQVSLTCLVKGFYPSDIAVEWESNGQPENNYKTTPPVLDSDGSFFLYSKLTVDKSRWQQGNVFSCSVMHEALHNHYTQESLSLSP
light: B1 light
notes: as for B4
B38: GpH7-B3 variant S324_04F/GpL16-k0 (antibody, human IgG1, kappa)
heavy: not shown
light: B1 light
notes: as for B4
B39: GpH7-B3 variant S337_07I/GpL16-k0 (antibody, human IgG1, kappa)
heavy: not shown
light: B1 light
notes: as for B4
B40: GpH7-B3 variant V266_06M/GpL16-k0 (antibody, human IgG1, kappa)
heavy: not shown
light: B1 light
notes: as for B4
B41: GpH7-B3 variant S298_06M/GpL16-k0 (antibody, human IgG1, kappa)
heavy: not shown
light: B1 light
notes: as for B4
B42: GpH7-B3 variant S337_08L/GpL16-k0 (antibody, human IgG1, kappa)
heavy: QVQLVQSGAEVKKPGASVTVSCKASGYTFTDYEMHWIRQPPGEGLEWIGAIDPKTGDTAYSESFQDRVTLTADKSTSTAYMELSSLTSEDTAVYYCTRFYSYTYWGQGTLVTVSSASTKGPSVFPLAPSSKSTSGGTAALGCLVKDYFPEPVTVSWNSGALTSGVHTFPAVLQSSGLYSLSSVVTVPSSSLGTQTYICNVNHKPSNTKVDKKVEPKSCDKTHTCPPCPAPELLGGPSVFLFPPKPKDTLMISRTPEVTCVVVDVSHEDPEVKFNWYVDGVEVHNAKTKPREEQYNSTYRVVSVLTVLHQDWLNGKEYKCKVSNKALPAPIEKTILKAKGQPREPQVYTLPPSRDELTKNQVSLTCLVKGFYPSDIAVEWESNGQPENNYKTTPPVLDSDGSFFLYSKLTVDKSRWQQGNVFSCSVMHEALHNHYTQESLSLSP
light: B1 light
notes: as for B4
B43: GpH7-B3 variant Q295_10E/GpL16-k0 (antibody, human IgG1, kappa)
heavy: not shown
light: B1 light
notes: as for B4
B44: GpH7-B3 variant Y300_18N/GpL16-k0 (antibody, human IgG1, kappa)
heavy: not shown
light: B1 light
notes: as for B4
B45: GpH7-B3 variant T335_20W/GpL16-k0 (antibody, human IgG1, kappa)
heavy: not shown
light: B1 light
notes: as for B4
B46: GpH7-B3 variant Y296_18N/GpL16-k0 (antibody, human IgG1, kappa)
heavy: not shown
light: B1 light
notes: as for B4
B47: GpH7-B3 variant T335_13S/GpL16-k0 (antibody, human IgG1, kappa)
heavy: not shown
light: B1 light
notes: as for B4
B48: GpH7-B3 variant T335_05P/GpL16-k0 (antibody, human IgG1, kappa)
heavy: not shown
light: B1 light
notes: as for B4
B49: GpH7-B3 variant S337_06M/GpL16-k0 (antibody, human IgG1, kappa)
heavy: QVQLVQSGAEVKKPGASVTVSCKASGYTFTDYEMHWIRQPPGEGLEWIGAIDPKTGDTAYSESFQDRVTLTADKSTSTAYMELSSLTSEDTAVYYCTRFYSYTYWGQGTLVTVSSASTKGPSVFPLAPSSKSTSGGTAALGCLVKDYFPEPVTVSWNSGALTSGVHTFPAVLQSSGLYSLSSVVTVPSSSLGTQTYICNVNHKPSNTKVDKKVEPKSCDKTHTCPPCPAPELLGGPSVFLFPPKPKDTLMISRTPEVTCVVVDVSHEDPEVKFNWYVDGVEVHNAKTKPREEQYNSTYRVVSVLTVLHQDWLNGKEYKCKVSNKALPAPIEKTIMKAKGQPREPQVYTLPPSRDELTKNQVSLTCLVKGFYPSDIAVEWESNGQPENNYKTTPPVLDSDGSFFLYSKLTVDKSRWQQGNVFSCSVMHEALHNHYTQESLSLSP
light: B1 light
notes: as for B4
B50: GpH7-B3 variant T335_15Y/GpL16-k0 (antibody, human IgG1, kappa)
heavy: not shown
light: B1 light
notes: as for B4
B51: GpH7-B3 variant Y296_06M/GpL16-k0 (antibody, human IgG1, kappa)
heavy: not shown
light: B1 light
notes: as for B4
B52: GpH7-B3 variant T335_12R/GpL16-k0 (antibody, human IgG1, kappa)
heavy: not shown
light: B1 light
notes: as for B4
B53: GpH7-B3 variant Y296_07I/GpL16-k0 (antibody, human IgG1, kappa)
heavy: not shown
light: B1 light
notes: as for B4
B54: GpH7-B3 variant S337_15Y/GpL16-k0 (antibody, human IgG1, kappa)
heavy: not shown
light: B1 light
notes: as for B4

What follows are binders tested against T2, FcγRIIIa extracellular domain with C-terminal His tag (human, UniProt P08637 17-208) (assay: SPR relative binding; GpH7-A5/GpH7-B3/GpL16-k0 = 100).
T2 construct: extracellular domain; also called FcgRIIIa; 3a; not shown: His tag at the C terminus
Procedure: (§1) Analysis of interaction between objective antibody and the FcγR was carried out using Biacore T100 (GE Healthcare). HBS-EP+ (GE Healthcare) was used as the running buffer, and the measurement temperature was set to 25° C. Chips produced by immobilizing the antigen peptide by the amine coupling method to a Series S Sencor Chip CM5 (GE Healthcare), or alternatively, chips produced by allowing preliminarily biotinylated antigen peptides to interact with and immobilize onto a Series S Sensor Chip SA (certified) (GE Healthcare) were used. Antibodies of interest were captured onto an antigen peptide-immobilized chip, and allowed to interact to each FcγR diluted with running buffer. To regenerate and repeatedly use the chip, the antibodies captured on the chip were washed off by reacting 10 mM glycine-HCl, pH 1.5.
(§2) The FcγR-binding activity of each antibody was assessed primarily using as an indicator the FcγR-binding activity and dissociation constant for FcγR.

T2 sequence (P08637 17-208): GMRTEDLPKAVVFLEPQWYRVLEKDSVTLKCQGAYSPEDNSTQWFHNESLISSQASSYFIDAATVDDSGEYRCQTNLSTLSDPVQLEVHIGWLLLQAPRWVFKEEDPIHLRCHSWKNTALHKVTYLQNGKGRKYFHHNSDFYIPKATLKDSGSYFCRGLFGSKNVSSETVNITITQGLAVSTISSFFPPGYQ

Row | He/Con_3a | Binder
1 | 155 % of control | B1
2 | 103 % of control | B2
3 | 105 % of control | B3

Each binder was assayed against T1, FcγRIIa R (human FcγRIIa, allotype R, …) (assay: SPR (Biacore), relative binding vs GpH7-B3/GpL16-k0).
Procedure: as §1, §2

Row | Ho/Con_2aR | Binder
4 | 98.3 relative, control = 100 | B4
5 | 118 relative, control = 100 | B5
6 | 102 relative, control = 100 | B6
7 | 85.3 relative, control = 100 | B7
8 | 109 relative, control = 100 | B8
9 | 102 relative, control = 100 | B9
10 | 107 relative, control = 100 | B10
11 | 110 relative, control = 100 | B11
12 | 88.9 relative, control = 100 | B12
13 | 102 relative, control = 100 | B13
14 | 100 relative, control = 100 | B14
15 | 94.5 relative, control = 100 | B15
16 | 105 relative, control = 100 | B16
17 | 88.1 relative, control = 100 | B17
18 | 100 relative, control = 100 | B18
19 | 107 relative, control = 100 | B19
20 | 107 relative, control = 100 | B20
21 | 90.2 relative, control = 100 | B21
22 | 101 relative, control = 100 | B22
23 | 114 relative, control = 100 | B23
24 | 90.3 relative, control = 100 | B24
25 | 103 relative, control = 100 | B25
26 | 97.7 relative, control = 100 | B26
27 | 110 relative, control = 100 | B27
28 | 102 relative, control = 100 | B28
29 | 94.6 relative, control = 100 | B29

Row | Ho/Con_2aR | Binder
30 | 82.9 relative, control = 100 | B30
31 | 92.3 relative, control = 100 | B31
32 | 93.9 relative, control = 100 | B32
33 | 89.5 relative, control = 100 | B33
34 | 106 relative, control = 100 | B34
35 | 102 relative, control = 100 | B35
36 | 167 relative, control = 100 | B36
37 | 102 relative, control = 100 | B37
38 | 101 relative, control = 100 | B38
39 | 103 relative, control = 100 | B39
40 | 146 relative, control = 100 | B40
41 | 102 relative, control = 100 | B41
42 | 99.4 relative, control = 100 | B42
43 | 99.2 relative, control = 100 | B43
44 | 87.6 relative, control = 100 | B44
45 | 101 relative, control = 100 | B45
46 | 93.7 relative, control = 100 | B46
47 | 102 relative, control = 100 | B47
48 | 104 relative, control = 100 | B48
49 | 101 relative, control = 100 | B49
50 | 107 relative, control = 100 | B50
51 | 84 relative, control = 100 | B51
52 | 94 relative, control = 100 | B52
53 | 83.1 relative, control = 100 | B53
54 | 100 relative, control = 100 | B54
